Legend:
[1] = tested on: Jurkat cells; assay: GFP expression after delivery of LINE-1 plasmid or mRNA with CMV-GFP antisense reporter; type: cell-based; details: 4 days post electroporation, relative to mock, FIG. 17B
Protocol: To test retrotransposition in immune cells, LINE-1 plasmid and mRNA were tested with the CMV-GFP antisense reporter cargo by electroporating into Jurkat cells, which is a T cell lymphoma line (FIG. 17A-FIG. 17B). Mock set were electroporated with a plasmid with no GFP sequence. Fold increase is reported relative to mock transfected cells.

[2] = tested on: HEK293T cells; assay: Expression of CD5 binder (ATAK) receptor and GFP by flow cytometry with labeled CD5 after LINE-1 plasmid transfection; type: cell-based, human
From the text: HEK 293 cells were transfected with a plasmid having the LINE-1 elements, with a 3 kb cargo sequence encoding recombinant receptor protein CD5-intron-fcr-PI3K (ATAK) that is interrupted by an intron sequence in the CD5 binding domain. The cargo is a chimeric receptor that has a CD5 binding extracellular domain, a FCRγ transmembrane domain, and an intracellular domain having a PI3-kinase recruitment domain. As in the design of the experiment above, the ATAK receptor cannot express unless it is integrated in the genome and the intron is spliced off. Following transfection in HEK293T cells, the receptor expression is detected using labeled CD5 as bait for the CD5 binding extracellular domain. Results shown in FIGS. 9B and 9C show successful integration and expression of the receptor. 36.5% cells were ATAK (CD5 binder) positive (FIG. 9C).
In a further modification, a LINE-1 construct (LINE-1plasmid-cd5_fcr-pi3k_t2a_GFPintron) with a longer 3.7 kb cargo sequence encoding a non-interrupted recombinant receptor protein CD5-intron-fcr-PI3K and an interrupted GFP sequence with a T2A sequence between receptor and the GFP sequences (FIG. 10A). […] Exemplary fluorescence identification of GFP and fluorescent tagged CD5 binding and gating quantitation for experimental runs are shown in FIG. 10C and FIG. 10D.
The cargo GFP gene in the previous construct was replaced with intron interrupted CD5-FcR-P13K CAR-M sequence (Morrissey et al., 2018). The CD5 binder expression was measured by flow cytometry using a Alexa647-conjugated CD5 protein such that retrotransposed cells are CD5-AF647 positive (red histogram) compared with a plasmid transfected negative control cell population (grey histogram) (FIG. 30).
The cargo gene length was extended by adding the intron-interrupted GFP gene after the T2A sequence downstream of the CD5-FcR-PI3K CAR-M sequence (FIG. 31). The CD5 binder expression was measured by flow cytometry using a Alexa647-conjugated CD5 protein. […]

B1: LINE-1 plasmid GFP: plasmid with LINE-1 ORF1, ORF2 and CMV promoter driven split GFP gene in reverse orientation in the 3′UTR (SEQ ID NO: 37) (nucleic acid)
DNA: CGGCCGCGGGGGGAGGAGCCAAGATGGCCGAATAGGAACAGCTCCGGTCTACAGCTCCCAGCGTGAGCGACGCAGAAGACGGTGATTTCTGCATTTCCATCTGAGGTACCGGGTTCATCTCACTAGGGAGTGCCAGACAGTGGGCGCAGGCCAGTGTGTGTGCGCACCGTGCGCGAGCCGAAGCAGGGCGAGGCATTGCCTCACCTGGGAAGCGCAAGGGGTCAGGGAGTTCCCTTTCCGAGTCAAAGAAAGGGGTGACGGACGCACCTGGAAAATCGGGTCACTCCCACCCGAATATTGCGCTTTTCAGACCGGCTTAAGAAACGGCGCACCACGAGACTATATCCCACACCTGGCTCGGAGGGTCCTACGCCCACGGAATCTCGCTGATTGCTAGCACAGCAGTCTGAGATCAAACTGCAAGGCGGCAACGAGGCTGGGGGAGGGGCGCCCGCCATTGCCCAGGCTTGCTTAGGTAAACAAAGCAGCAGGGAAGCTCGAACTGGGTGGAGCCCACCACAGCTCAAGGAGGCCTGCCTGCCTCTGTAGGCTCCACCTCTGGGGGCAGGGCACAGACAAACAAAAAGACAGCAGTAACCTCTGCAGACTTAAGTGTCCCTGTCTGACAGCTTTGAAGAGAGCAGTGGTTCTCCCAGCACGCAGCTGGAGATCTGAGAACGGGCAGACTGCCTCCTCAAGTGGGTCCCTGACCCCTGACCCCCGAGCAGCCTAACTGGGAGGCACCCCCCAGCAGGGGCACACTGACACCTCACACGGCAGGGTATTCCAACAGACCTGCAGCTGAGGGTCCTGTCTGTTAGAAGGAAAACTAACAACCAGAAAGGACATCTACACCGAAAACCCATCTGTACATCACCATCATCAAAGACCAAAAGTAGATAAAACCACAAAGATGGGGAAAAAACAGAACAGAAAAACTGGAAACTCTAAAACGCAGAGCGCCTCTCCTCCTCCAAAGGAACGCAGTTCCTCACCAGCAACAGAACAAAGCTGGATGGAGAATGATTTTGATGAGCTGAGAGAAGAAGGCTTCAGACGATCAAATTACTCTGAGCTACGGGAGGACATTCAAACCAAAGGCAAAGAAGTTGAAAACTTTGAAAAAAATTTAGAAGAATGTATAACTAGAATAACCAATACAGAGAAGTGCTTAAAGGAGCTGATGGAGCTGAAAACCAAGGCTCGAGAACTACGTGAAGAATGCAGAAGCCTCAGGAGCCGATGCGATCAACTGGAAGAAAGGGTATCAGCAATGGAAGATGAAATGAATGAAATGAAGCGAGAAGGGAAGTTTAGAGAAAAAAGAATAAAAAGAAATGAGCAAAGCCTCCAAGAAATATGGGACTATGTGAAAAGACCAAATCTACGTCTGATTGGTGTACCTGAAAGTGATGTGGAGAATGGAACCAA
- GFP expression [1]: successful GFP expression

B2: CD5-intron-fcr-PI3K: LINE-1 plasmid with 3 kb cargo encoding intron-interrupted CD5 binding chimeric receptor (ATAK) (SEQ ID NO: 39) (nucleic acid)
DNA: CGGCCGCGGGGGGAGGAGCCAAGATGGCCGAATAGGAACAGCTCCGGTCTACAGCTCCCAGCGTGAGCGACGCAGAAGACGGTGATTTCTGCATTTCCATCTGAGGTACCGGGTTCATCTCACTAGGGAGTGCCAGACAGTGGGCGCAGGCCAGTGTGTGTGCGCACCGTGCGCGAGCCGAAGCAGGGCGAGGCATTGCCTCACCTGGGAAGCGCAAGGGGTCAGGGAGTTCCCTTTCCGAGTCAAAGAAAGGGGTGACGGACGCACCTGGAAAATCGGGTCACTCCCACCCGAATATTGCGCTTTTCAGACCGGCTTAAGAAACGGCGCACCACGAGACTATATCCCACACCTGGCTCGGAGGGTCCTACGCCCACGGAATCTCGCTGATTGCTAGCACAGCAGTCTGAGATCAAACTGCAAGGCGGCAACGAGGCTGGGGGAGGGGCGCCCGCCATTGCCCAGGCTTGCTTAGGTAAACAAAGCAGCAGGGAAGCTCGAACTGGGTGGAGCCCACCACAGCTCAAGGAGGCCTGCCTGCCTCTGTAGGCTCCACCTCTGGGGGCAGGGCACAGACAAACAAAAAGACAGCAGTAACCTCTGCAGACTTAAGTGTCCCTGTCTGACAGCTTTGAAGAGAGCAGTGGTTCTCCCAGCACGCAGCTGGAGATCTGAGAACGGGCAGACTGCCTCCTCAAGTGGGTCCCTGACCCCTGACCCCCGAGCAGCCTAACTGGGAGGCACCCCCCAGCAGGGGCACACTGACACCTCACACGGCAGGGTATTCCAACAGACCTGCAGCTGAGGGTCCTGTCTGTTAGAAGGAAAACTAACAACCAGAAAGGACATCTACACCGAAAACCCATCTGTACATCACCATCATCAAAGACCAAAAGTAGATAAAACCACAAAGATGGGGAAAAAACAGAACAGAAAAACTGGAAACTCTAAAACGCAGAGCGCCTCTCCTCCTCCAAAGGAACGCAGTTCCTCACCAGCAACAGAACAAAGCTGGATGGAGAATGATTTTGATGAGCTGAGAGAAGAAGGCTTCAGACGATCAAATTACTCTGAGCTACGGGAGGACATTCAAACCAAAGGCAAAGAAGTTGAAAACTTTGAAAAAAATTTAGAAGAATGTATAACTAGAATAACCAATACAGAGAAGTGCTTAAAGGAGCTGATGGAGCTGAAAACCAAGGCTCGAGAACTACGTGAAGAATGCAGAAGCCTCAGGAGCCGATGCGATCAACTGGAAGAAAGGGTATCAGCAATGGAAGATGAAATGAATGAAATGAAGCGAGAAGGGAAGTTTAGAGAAAAAAGAATAAAAAGAAATGAGCAAAGCCTCCAAGAAATATGGGACTATGTGAAAAGACCAAATCTACGTCTGATTGGTGTACCTGAAAGTGATG
- cells ATAK (CD5 binder) positive ([2]; HEK293T cells transfected with LINE-1 plasmid, 3 kb cargo, labeled CD5 as bait, FIG. 9C): 36.5%

B3: LINE-1plasmid-cd5_fcr-pi3k_t2a_GFPintron: LINE-1 plasmid with 3.7 kb cargo: CD5 binding receptor, T2A, intron-interrupted GFP (SEQ ID NO: 40) (nucleic acid)
DNA: CGGCCGCGGGGGGAGGAGCCAAGATGGCCGAATAGGAACAGCTCCGGTCTACAGCTCCCAGCGTGAGCGACGCAGAAGACGGTGATTTCTGCATTTCCATCTGAGGTACCGGGTTCATCTCACTAGGGAGTGCCAGACAGTGGGCGCAGGCCAGTGTGTGTGCGCACCGTGCGCGAGCCGAAGCAGGGCGAGGCATTGCCTCACCTGGGAAGCGCAAGGGGTCAGGGAGTTCCCTTTCCGAGTCAAAGAAAGGGGTGACGGACGCACCTGGAAAATCGGGTCACTCCCACCCGAATATTGCGCTTTTCAGACCGGCTTAAGAAACGGCGCACCACGAGACTATATCCCACACCTGGCTCGGAGGGTCCTACGCCCACGGAATCTCGCTGATTGCTAGCACAGCAGTCTGAGATCAAACTGCAAGGCGGCAACGAGGCTGGGGGAGGGGCGCCCGCCATTGCCCAGGCTTGCTTAGGTAAACAAAGCAGCAGGGAAGCTCGAACTGGGTGGAGCCCACCACAGCTCAAGGAGGCCTGCCTGCCTCTGTAGGCTCCACCTCTGGGGGCAGGGCACAGACAAACAAAAAGACAGCAGTAACCTCTGCAGACTTAAGTGTCCCTGTCTGACAGCTTTGAAGAGAGCAGTGGTTCTCCCAGCACGCAGCTGGAGATCTGAGAACGGGCAGACTGCCTCCTCAAGTGGGTCCCTGACCCCTGACCCCCGAGCAGCCTAACTGGGAGGCACCCCCCAGCAGGGGCACACTGACACCTCACACGGCAGGGTATTCCAACAGACCTGCAGCTGAGGGTCCTGTCTGTTAGAAGGAAAACTAACAACCAGAAAGGACATCTACACCGAAAACCCATCTGTACATCACCATCATCAAAGACCAAAAGTAGATAAAACCACAAAGATGGGGAAAAAACAGAACAGAAAAACTGGAAACTCTAAAACGCAGAGCGCCTCTCCTCCTCCAAAGGAACGCAGTTCCTCACCAGCAACAGAACAAAGCTGGATGGAGAATGATTTTGATGAGCTGAGAGAAGAAGGCTTCAGACGATCAAATTACTCTGAGCTACGGGAGGACATTCAAACCAAAGGCAAAGAAGTTGAAAACTTTGAAAAAAATTTAGAAGAATGTATAACTAGAATAACCAATACAGAGAAGTGCTTAAAGGAGCTGATGGAGCTGAAAACCAAGGCTCGAGAACTACGTGAAGAATGCAGAAGCCTCAGGAGCCGATGCGATCAACTGGAAGAAAGGGTATCAGCAATGGAAGATGAAATGAATGAAATGAAGCGAGAAGGGAAGTTTAGAGAAAAAAGAATAAAAAGAAATGAGCAAAGCCTCCAAGAAATATGGGACTATGTGAAAAGACCAAATCTACGTCTGATTGGTGTACCTGA
- cells express both CAR-M and GFP proteins ([2]; 3.7 kb cargo, flow cytometry signal in Q2, Alexa647-conjugated CD5 protein, FIG. 31): 10.8%
- increase of the ATAK receptor and GFP double-positive cells ([2]; 3.7 kb cargo, normalized against mock-transfected cells, FIG. 10B): greater than 10 fold

— patent US12319925B2, “Methods and compositions for genomic integration” (Myeloid Therapeutics, Inc., priority 2021, dated 2025)
